Target: T1, MBP::PP1β (UniProt P62140 1-327)
T1 construct: PP1β; Expressed from a derivative of plasmid pMH919 carrying MBP instead of 6His; also called MBP-tagged PP1β; source: S. cerevisiae (strain MGY960), purified on amylose resin, eluted with 20 mM maltose
Experiment: pull-down; GST pull-down: GST::MKLP1_(620–858) proteins on Glutathione Sepharose beads mixed with MBP::PP1β purified from yeast; NET-N+ buffer (50 mM Tris-HCl pH 7.4, 150 mM NaCl, 5 mM EDTA, 0.2% NP-40), 60 min at 4 °C, washes with 250 mM NaCl; western blot
Conditions: both partners purified

T1 sequence (P62140 whole entry): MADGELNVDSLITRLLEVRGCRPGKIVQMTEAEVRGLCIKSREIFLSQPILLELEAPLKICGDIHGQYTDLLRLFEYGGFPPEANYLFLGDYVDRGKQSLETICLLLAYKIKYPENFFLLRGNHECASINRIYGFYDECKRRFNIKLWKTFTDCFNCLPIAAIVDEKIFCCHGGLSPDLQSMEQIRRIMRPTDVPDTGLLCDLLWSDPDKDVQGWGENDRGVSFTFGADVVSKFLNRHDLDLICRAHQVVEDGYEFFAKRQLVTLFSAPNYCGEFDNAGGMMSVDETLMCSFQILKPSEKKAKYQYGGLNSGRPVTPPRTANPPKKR

Binder | binding result
GST::MKLP1_(620–858) (wild type) (domain or fragment, UniProt Q02241-2 620-856, looked up, Cloned into pDEST15; source: E. coli, purified (Glutathione Sepharose 4B), kept on beads; not shown: GST, N-terminal, kept) ETTMKWEKECERRVAAKQLEMQNKLWVKDEKLKQLKAIVTEPKTEKPERPSRERDREKVTQRSVSPSPVPLLFQPDQNAPPIRLRHRRSRSAGDRWVDHKPASNMQTETVMQPHVPHAITVSVANEKALAKCEKYMLTHQELASDGEIETKLIKGDIYKTRGGGQSVQFTDIETLKQESPNGSRKRRSSTVAPAQPDGAESEWTDVETRCSVAVEMRAGSQLGPGYQHHAQPKRKKP | binds
GST::MKLP1_(620–858) AQA mutant (domain or fragment, UniProt Q02241-2 620-856, looked up, Cloned into pDEST15; also called AQA MKLP1; source: E. coli, purified (Glutathione Sepharose 4B), kept on beads; not shown: GST, N-terminal, kept) ETTMKWEKECERRVAAKQLEMQNKLWVKDEKLKQLKAIVTEPKTEKPERPSRERDREKVTQRSVSPSPVPLLFQPDQNAPPIRLRHRRSRSAGDRWVDHKPASNMQTETVMQPHVPHAITVSVANEKALAKCEKYMLTHQELASDGEIETKLIKGDIYKTRGGGQSAQATDIETLKQESPNGSRKRRSSTVAPAQPDGAESEWTDVETRCSVAVEMRAGSQLGPGYQHHAQPKRKKP | binds

From article PMC6778137, “The midbody interactome reveals unexpected roles for PP1 phosphatases in cytokinesis” (Nature Communications, 2019)
